Assay results published in patent publication US20150376265A1 (Genentech, published 2015).

Columns and labels:
[1] = target: T1, Complex I with gH W168R, on virions of HB1 - mutant virus 6 (HCMV, UniProt P12824 24-743; P16832 31-278; P16837 28-171; F5HCP3 26-214; F5HET4 19-129); test: cell-based or functional assay
T1 chain 1: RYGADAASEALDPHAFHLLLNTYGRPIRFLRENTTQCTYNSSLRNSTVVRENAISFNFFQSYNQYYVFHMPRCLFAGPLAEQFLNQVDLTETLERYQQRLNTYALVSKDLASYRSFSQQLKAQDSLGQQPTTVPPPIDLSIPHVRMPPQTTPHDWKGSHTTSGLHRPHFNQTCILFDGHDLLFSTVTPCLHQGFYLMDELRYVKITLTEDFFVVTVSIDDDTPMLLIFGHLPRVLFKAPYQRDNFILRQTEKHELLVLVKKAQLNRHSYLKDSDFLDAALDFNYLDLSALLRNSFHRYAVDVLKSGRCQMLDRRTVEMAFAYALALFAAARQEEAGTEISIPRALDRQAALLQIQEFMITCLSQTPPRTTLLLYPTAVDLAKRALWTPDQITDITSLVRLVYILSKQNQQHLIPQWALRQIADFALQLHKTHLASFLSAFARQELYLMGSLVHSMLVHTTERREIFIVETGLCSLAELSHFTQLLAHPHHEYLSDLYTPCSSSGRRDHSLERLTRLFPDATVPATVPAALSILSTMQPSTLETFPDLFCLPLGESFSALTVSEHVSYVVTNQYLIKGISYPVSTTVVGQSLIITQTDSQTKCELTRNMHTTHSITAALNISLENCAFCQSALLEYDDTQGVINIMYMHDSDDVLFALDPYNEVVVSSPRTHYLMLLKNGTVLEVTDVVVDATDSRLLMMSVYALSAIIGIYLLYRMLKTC
T1 chain 2: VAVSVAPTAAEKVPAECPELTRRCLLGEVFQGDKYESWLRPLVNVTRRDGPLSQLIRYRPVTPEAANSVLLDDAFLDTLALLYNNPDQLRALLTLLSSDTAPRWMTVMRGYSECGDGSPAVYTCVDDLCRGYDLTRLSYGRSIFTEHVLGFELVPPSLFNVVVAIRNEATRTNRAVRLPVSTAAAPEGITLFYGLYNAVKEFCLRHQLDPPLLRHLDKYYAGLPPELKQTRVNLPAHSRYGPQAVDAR
T1 chain 3: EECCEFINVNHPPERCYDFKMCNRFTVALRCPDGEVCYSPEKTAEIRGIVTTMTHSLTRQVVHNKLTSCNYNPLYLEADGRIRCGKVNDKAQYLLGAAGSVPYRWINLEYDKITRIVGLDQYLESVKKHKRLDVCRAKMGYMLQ
T1 chain 4: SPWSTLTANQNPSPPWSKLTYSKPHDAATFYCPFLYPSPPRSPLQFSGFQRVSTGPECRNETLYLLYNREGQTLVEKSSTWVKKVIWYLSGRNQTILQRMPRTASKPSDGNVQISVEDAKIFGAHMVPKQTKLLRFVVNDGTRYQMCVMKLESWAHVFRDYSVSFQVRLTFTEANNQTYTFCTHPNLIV
T1 chain 5: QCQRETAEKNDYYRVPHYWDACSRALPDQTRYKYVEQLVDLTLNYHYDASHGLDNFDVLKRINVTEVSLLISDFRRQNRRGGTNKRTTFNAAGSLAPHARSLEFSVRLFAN

[2] = target: T2, Complex I with gH W168C, on virions of HB1 - mutant viruses 2 and 5 (HCMV, UniProt P12824 24-743; P16832 31-278; P16837 28-171; F5HCP3 26-214; F5HET4 19-129); test: cell-based or functional assay
T2 chain 1: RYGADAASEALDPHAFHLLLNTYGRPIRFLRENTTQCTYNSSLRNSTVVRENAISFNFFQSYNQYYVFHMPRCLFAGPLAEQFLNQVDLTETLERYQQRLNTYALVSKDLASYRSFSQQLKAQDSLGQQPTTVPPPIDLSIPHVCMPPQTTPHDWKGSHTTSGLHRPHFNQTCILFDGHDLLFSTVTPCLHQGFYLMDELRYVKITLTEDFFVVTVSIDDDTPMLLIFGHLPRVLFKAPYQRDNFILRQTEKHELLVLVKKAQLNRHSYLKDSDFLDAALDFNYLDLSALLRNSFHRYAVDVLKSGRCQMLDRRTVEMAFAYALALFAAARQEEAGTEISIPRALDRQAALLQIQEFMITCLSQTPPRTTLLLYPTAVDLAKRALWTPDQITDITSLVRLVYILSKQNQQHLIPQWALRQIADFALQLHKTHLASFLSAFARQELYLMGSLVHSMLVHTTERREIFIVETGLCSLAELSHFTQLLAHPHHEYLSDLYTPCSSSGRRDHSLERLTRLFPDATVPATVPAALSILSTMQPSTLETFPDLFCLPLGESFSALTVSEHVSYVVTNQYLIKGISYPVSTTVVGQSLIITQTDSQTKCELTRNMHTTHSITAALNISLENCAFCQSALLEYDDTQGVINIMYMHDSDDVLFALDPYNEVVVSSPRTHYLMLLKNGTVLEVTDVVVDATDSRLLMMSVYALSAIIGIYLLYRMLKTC
T2 chain 2: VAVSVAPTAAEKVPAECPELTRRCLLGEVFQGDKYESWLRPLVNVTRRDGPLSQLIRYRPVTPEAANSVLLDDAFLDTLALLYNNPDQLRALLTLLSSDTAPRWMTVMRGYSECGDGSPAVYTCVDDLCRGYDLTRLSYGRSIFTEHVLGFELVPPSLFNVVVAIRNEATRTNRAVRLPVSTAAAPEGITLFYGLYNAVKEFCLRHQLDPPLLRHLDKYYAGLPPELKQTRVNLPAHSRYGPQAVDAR
T2 chain 3: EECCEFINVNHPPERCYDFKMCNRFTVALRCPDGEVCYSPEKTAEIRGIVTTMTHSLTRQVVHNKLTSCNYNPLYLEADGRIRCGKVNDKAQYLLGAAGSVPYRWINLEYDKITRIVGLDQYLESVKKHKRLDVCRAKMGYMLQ
T2 chain 4: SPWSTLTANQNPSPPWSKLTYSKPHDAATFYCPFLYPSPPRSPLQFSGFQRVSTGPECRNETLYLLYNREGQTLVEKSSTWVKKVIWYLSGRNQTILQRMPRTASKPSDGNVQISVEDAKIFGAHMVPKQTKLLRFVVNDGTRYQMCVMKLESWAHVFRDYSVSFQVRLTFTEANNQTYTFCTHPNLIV
T2 chain 5: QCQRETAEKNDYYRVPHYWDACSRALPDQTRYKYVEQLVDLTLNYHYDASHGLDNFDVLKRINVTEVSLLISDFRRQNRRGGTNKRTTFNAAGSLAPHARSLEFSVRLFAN

B1: hu8G8 (lambda4 8G8 graft and hu8G8.VH1) (antibody, V domains shown)
VH: EVQLVQSGAEVKKPGASVKVSCKASGYTFTNYGMNWVRQAPGQGLEWIGWINTYTGEPTYADDFKGRVTITRDTSTSTAYLELSSLRSEDTAVYYCARSWYYVSNYWYFDVWGQGTLVTVSS
VL: SVLTQSPSASASLGASVKLTCTLSSQHSTYTIEWYQQQPGKGPRYLMKLKKDGSHSTGDGIPDRFSGSSSGADRYLTISNLQSEDEADYYCGVGDTIKEQFVYVFGGGTKLTVLG
notes: also called hu8G8 with VH1; Humanized 8G8 with VH1
hu8G8 EC50, neutralisation of HB1 - mutant virus 6, Data Set 2 [1]: 1 ng/mL | hu8G8 EC50, neutralisation of HB1 - mutant virus 2, Data Set 1 [2]: 8 ng/mL | hu8G8 EC50, neutralisation of HB1 - mutant virus 2, Data Set 2 [2]: 6 ng/mL | hu8G8 EC50, neutralisation of HB1 - mutant virus 5, Data Set 2 [2]: 1 ng/mL
